Measurements: the Human Domainome abundance scans (Beltran et al. 2025)
± gives the uncertainty stated by the source.

B1: Homeobox protein cut-like 1, residues 548 to 629; numbered along this chain, P39880 (parent)
chain: GEEMDTAEIARQVKEQLIKHNIGQRIFGHYVLGLSQGSVSEILARPKPWNKLTVRGKEPFHKMKQFLSDEQNILALRSIQGR

Variants of: B1
Test: abundance fitness (aPCA) (normalised: wild type 0, dead -1); higher = more abundant; growth selection in yeast, the domain comes from the species named
Conditions: Homo sapiens

Abundance fitness of substitutions, site by site:
V39: C -0.025 ± 0.046; F -0.165 ± 0.093; R -0.915 ± 0.043; P -0.642 ± 0.055; W -0.33 ± 0.038; I -0.212 ± 0.067; K -0.898 ± 0.079; D -0.732 ± 0.078; G -0.725 ± 0.033; N -0.697 ± 0.14; E -0.456 ± 0.035; Q -0.676 ± 0.062; A -0.177 ± 0.028; L -0.101 ± 0.031; S -0.316 ± 0.037; Y -0.574 ± 0.11; T 0.086 ± 0.033; M -0.249 ± 0.039; H -0.844 ± 0.12
S40: W -0.131 ± 0.031; Y -0.102 ± 0.058; T 0.055 ± 0.036; A 0.057 ± 0.026; G -0.06 ± 0.021; P -0.258 ± 0.048; L -0.101 ± 0.031; M -0.051 ± 0.038; N -0.018 ± 0.052; E 0.13 ± 0.028; C -0.063 ± 0.041; H 0.123 ± 0.052; Q 0.017 ± 0.038; I -0.117 ± 0.081; D 0.078 ± 0.039; K 0.032 ± 0.036; F -0.162 ± 0.082
P48: V -0.374 ± 0.032; Y -0.78 ± 0.12; I -0.438 ± 0.1; M -0.27 ± 0.043; W -0.325 ± 0.033; Q -0.247 ± 0.038; A -0.119 ± 0.028; C -0.268 ± 0.055; N -0.446 ± 0.083; H -0.16 ± 0.061; K -0.452 ± 0.049; S -0.168 ± 0.036; E -0.126 ± 0.031; D -0.267 ± 0.058; F -0.513 ± 0.11; G -0.539 ± 0.028; R -0.475 ± 0.029
A44: V -0.137 ± 0.029; C -0.134 ± 0.047; W -0.176 ± 0.032; F -0.082 ± 0.052; K -0.094 ± 0.04; R -0.106 ± 0.026; Y -0.099 ± 0.056; E 0.08 ± 0.03; I -0.159 ± 0.055; T 0.057 ± 0.035; P -0.709 ± 0.06; D 0.056 ± 0.041; S 0.034 ± 0.032; L -0.027 ± 0.031; N 0.073 ± 0.073; Q 0.053 ± 0.038; M 0.047 ± 0.037; G -0.038 ± 0.024
Y30: I -0.024 ± 0.065; M -0.122 ± 0.039; K -0.091 ± 0.034; N -0.282 ± 0.058; T -0.147 ± 0.035; Q -0.099 ± 0.036; G -0.552 ± 0.029; V -0.053 ± 0.028; H 0.014 ± 0.052; L -0.111 ± 0.031; R -0.201 ± 0.025; W -0.184 ± 0.03; P -0.742 ± 0.064
G37: E 0.136 ± 0.027; N -0.016 ± 0.065; T 0.063 ± 0.041; V -0.051 ± 0.029; I -0.17 ± 0.074; H 0.006 ± 0.055; K 0.091 ± 0.034; P -0.084 ± 0.039; Q 0.092 ± 0.035; Y -0.034 ± 0.057; W -0.057 ± 0.029; M 0.002 ± 0.035; R 0.029 ± 0.023; L -0.022 ± 0.028; S 0.024 ± 0.033; C -0.013 ± 0.048; F -0.075 ± 0.088; A 0.037 ± 0.029
L34: C -0.047 ± 0.055; D -0.274 ± 0.056; S -0.349 ± 0.04; V -0.151 ± 0.028; F -0.167 ± 0.068; I -0.052 ± 0.062; G -0.461 ± 0.029; R -0.393 ± 0.027; Q -0.173 ± 0.039; P -0.519 ± 0.059; K -0.346 ± 0.04; W -0.264 ± 0.032; N -0.362 ± 0.079; T -0.213 ± 0.038; M 0.09 ± 0.039; Y -0.26 ± 0.063; A -0.228 ± 0.033
I42: E -0.707 ± 0.046; D -0.723 ± 0.082; A -0.36 ± 0.034; K -0.747 ± 0.073; R -1 ± 0.053; C -0.253 ± 0.049; P -0.819 ± 0.11; Q -0.564 ± 0.06; Y -0.351 ± 0.085; L -0.013 ± 0.031; V -0.104 ± 0.028; W -0.513 ± 0.038; T -0.375 ± 0.05; N -0.633 ± 0.12; F -0.242 ± 0.086; M 0.004 ± 0.038
L43: F -0.146 ± 0.07; I -0.534 ± 0.1; T -0.922 ± 0.1; H -1.04 ± 0.19; A -0.772 ± 0.043; C -0.843 ± 0.1; N -1 ± 0.16; K -1.03 ± 0.078; M -0.235 ± 0.038; Y -0.699 ± 0.13; P -0.926 ± 0.073; W -0.743 ± 0.057; E -0.89 ± 0.062; S -0.865 ± 0.065; R -1 ± 0.048; D -0.68 ± 0.1; V -0.769 ± 0.043; G -0.929 ± 0.043; Q -0.807 ± 0.069
K47: E -0.037 ± 0.032; V -0.015 ± 0.028; H -0.276 ± 0.068; W -0.329 ± 0.033; F -0.338 ± 0.071; M -0.06 ± 0.035; A -0.116 ± 0.028; I -0.086 ± 0.058; D -0.08 ± 0.044; Q 0.03 ± 0.035; R -0.072 ± 0.025; L 0.028 ± 0.028; T -0.019 ± 0.033; Y -0.432 ± 0.082; S -0.126 ± 0.034; N -0.339 ± 0.06; G -0.288 ± 0.025
S35: K -0.035 ± 0.033; A -0.112 ± 0.027; N -0.081 ± 0.058; F -0.126 ± 0.087; L -0.384 ± 0.036; H -0.238 ± 0.052; R -0.209 ± 0.026; D 0.154 ± 0.045; Y -0.298 ± 0.08; I -0.308 ± 0.084; G -0.039 ± 0.024; V -0.236 ± 0.031; P 0.062 ± 0.037; M -0.278 ± 0.038; C -0.086 ± 0.052; W -0.311 ± 0.036; Q -0.029 ± 0.032
W49: E -0.273 ± 0.26; R -0.574 ± 0.16; A -0.202 ± 0.14; S -0.477 ± 0.22; T -0.509 ± 0.31; L -0.506 ± 0.23
S38: A 0.072 ± 0.025; I -0.008 ± 0.067; T -0.005 ± 0.031; G -0.049 ± 0.022; W -0.273 ± 0.035; M 0.11 ± 0.034; E 0.141 ± 0.026; P -0.079 ± 0.032; L -0.005 ± 0.029; Q 0.113 ± 0.034; C 0.025 ± 0.04; D 0.125 ± 0.045; Y -0.112 ± 0.054; V 0.097 ± 0.026; R -0.711 ± 0.038; H -0.031 ± 0.051; K 0.061 ± 0.03; F -0.181 ± 0.071; N -0.027 ± 0.049
L32: Q -0.791 ± 0.063; T -0.741 ± 0.057; S -0.793 ± 0.054; D -0.773 ± 0.083; F -0.988 ± 0.24; A -0.732 ± 0.044; R -0.943 ± 0.043; K -0.986 ± 0.091; I -0.562 ± 0.088; G -0.839 ± 0.042; N -0.768 ± 0.12; Y -1.01 ± 0.21; H -0.723 ± 0.12; C -0.281 ± 0.056; P -0.894 ± 0.084; E -0.792 ± 0.05; V -0.41 ± 0.033; M -0.317 ± 0.046
V31: W -0.133 ± 0.031; E -0.681 ± 0.04; L -0.391 ± 0.035; M -0.431 ± 0.051; G -0.766 ± 0.036; C -0.179 ± 0.049; H -0.988 ± 0.24; K -1.04 ± 0.096; Y -0.2 ± 0.058; T -0.488 ± 0.045; Q -0.882 ± 0.071; R -0.947 ± 0.046; N -0.713 ± 0.099; S -0.806 ± 0.059; D -0.839 ± 0.082
Q36: W -0.039 ± 0.031; R -0.049 ± 0.025; A 0.021 ± 0.026; K 0.025 ± 0.037; M -0.104 ± 0.036; L 0.008 ± 0.032; H -0.017 ± 0.069; Y -0.045 ± 0.068; T -0.034 ± 0.033; P 0.071 ± 0.035; N -0.048 ± 0.057; E 0.055 ± 0.029; C -0.157 ± 0.047; D 0.056 ± 0.045; I -0.059 ± 0.053; V -0.025 ± 0.027
P46: K -0.938 ± 0.12; F -0.725 ± 0.12; R -0.925 ± 0.046; G -0.77 ± 0.034; N -0.685 ± 0.092; I -0.26 ± 0.058; D -0.854 ± 0.095; V -0.37 ± 0.028; H -0.746 ± 0.12; M -0.459 ± 0.053; Y -0.594 ± 0.081; W -0.356 ± 0.036; Q -0.482 ± 0.051; L -0.356 ± 0.037; S -0.652 ± 0.046; E -0.779 ± 0.061; A -0.346 ± 0.03
G33: Y -1.16 ± 0.35; W -0.969 ± 0.069; L -0.822 ± 0.055; P -0.882 ± 0.086; H -0.111 ± 0.059; T -0.798 ± 0.071; Q -0.221 ± 0.037; S -0.297 ± 0.035; I -1.15 ± 0.26; D -0.268 ± 0.049; F -0.883 ± 0.28; C -0.4 ± 0.056; N -0.106 ± 0.068; V -0.895 ± 0.054; K -0.217 ± 0.039; A -0.341 ± 0.032; R -0.351 ± 0.026; E -0.312 ± 0.033
E41: C -0.219 ± 0.045; S -0.265 ± 0.034; G -0.293 ± 0.025; Q -0.204 ± 0.04; H -0.353 ± 0.1; W -0.522 ± 0.041; M -0.377 ± 0.048; K -0.727 ± 0.074; L -0.345 ± 0.037; T -0.243 ± 0.039; F -0.758 ± 0.14; N -0.206 ± 0.059; I -0.477 ± 0.1; A -0.13 ± 0.029; D -0.061 ± 0.047; V -0.433 ± 0.034; Y -0.412 ± 0.083; R -0.851 ± 0.047
R45: E -0.009 ± 0.031; N -0.002 ± 0.058; P -0.797 ± 0.086; H 0.103 ± 0.056; K -0.006 ± 0.039; I -0.361 ± 0.083; S 0.041 ± 0.033; Q -0.021 ± 0.035; F 0.008 ± 0.05; V -0.228 ± 0.032; G -0.296 ± 0.026; A 0.03 ± 0.029; D -0.033 ± 0.047; C -0.001 ± 0.052; Y -0.085 ± 0.056; T -0.003 ± 0.038; W -0.201 ± 0.034; L -0.274 ± 0.034; M -0.049 ± 0.042
